The source of these data is patent publication US20210155955A1, “THERAPEUTIC CONSTRUCTS FOR TREATING CANCER” (CANCER TARGETING SYSTEMS, INC., priority 2018, published 2021).

In the test the test system is B16F10-Red-FLuc mouse melanoma cells. The test is described as follows: B16F10-Red-FLuc experimental metastasis to the lung, N/P=4 and N/P=6 versus recombinant mIL-12 (Example 9). The format is in vivo, C57BL/6 mice. As for the experimental part: The anti-tumor effect of nanoparticles containing PEG-mIL12 and expressing mIL-12 was compared to recombinant mIL-12 protein administered subcutaneously. The experimental design was as Example 8 but nanoparticles were prepared at N/P=4 and N/P=6 ratios. Nanoparticles were dosed as before for N/P=6, however, for the N/P=4 formulation the dose was maintained at 2 mg/kg in 10 mL/kg at day 8. For dosing of the recombinant protein, 10 μg of recombinant mIL-12 (PeproTech, Rocky Hill, N.J., USA) were reconstituted in PBS to make a 100 μg/mL stock solution. Dosing of the animals was at 4 μg/kg for the initial dose (Day 5) followed by four subsequent doses 12 μg/kg at the same intervals as the nanoparticles (Day 8, 11, 14 and 17).

B1: recombinant mIL-12: recombinant mIL-12 protein (PeproTech) administered subcutaneously (protein, UniProt P43431 23-215; P43432 23-335, looked up)
Interleukin-12 subunit alpha: RVIPVSGPARCLSQSRNLLKTTDDMVKTAREKLKHYSCTAEDIDHEDITRDQTSTLKTCLPLELHKNESCLATRETSSTTRGSCLPPQKTSLMMTLCLGSIYEDLKMYQTEFQAINAALQNHNHQQIILDKGMLVAIDELMQSLNHNGETLRQKPPVGEADPYRVKMKLCILLHAFSTRVVTINRVMGYLSSA
Interleukin-12 subunit beta: MWELEKDVYVVEVDWTPDAPGETVNLTCDTPEEDDITWTSDQRHGVIGSGKTLTITVKEFLDAGQYTCHKGGETLSHSHLLLHKKENGIWSTEILKNFKNKTFLKCEAPNYSGRFTCSWLVQRNMDLKFNIKSSSSSPDSRAVTCGMASLSAEKVTLDQRDYEKYSVSCQEDVTCPTAEETLPIELALEARQQNKYENYSTSFFIRDIIKPDPPKNLQMKPLKNSQVEVSWEYPDSWSTPHSYFSLKFFVRIQRKKEKMKETEEGCNQKGAFLVEKTSTEVQCKGGNVCVQAQDRYYNSSCSKWACVPCRVRS
Consider B1, for which the “Median survival time compared with Trehalose control” value (Log-rank test: p≤0.01 for formulations of PEG-mIL12, p≤0.05 for recombinant mIL-12, Trehalose 22.0 days) is recorded as “significantly longer”. Moreover, for the setting “Study Day 19”, the “tumor growth by luminescence readings compared with 9.5% Trehalose control” value is recorded as “significant (p≤0.05) inhibition of tumor growth”. The Median survival time (nanoparticles i.v. 2 mg/kg Days 5, 8, 11, 14, 17 (N/P=6: 1 mg/kg Day 8), recombinant mIL-12 subcutaneously 4 μg/kg Day 5 then 12 μg/kg) amounted to 25.0 days.
